Measurements reported in patent US20170074883A1.

Columns and labels:
[1] = molecular target: CD38 on the surface of the HCL cell line JOK-1 and its derivatives (JOK-Empty, JOK-RhoH, JOK-CD38-WT) (human) (UniProt P28907); assay: flow cytometry, FITC-IB6 on JOK-RhoH cells (RhoH induced, lower CD38 expression), mean of 4 experiments
[2] = molecular target: CD38 on the surface of the HCL cell line JOK-1 and its derivatives (JOK-Empty, JOK-RhoH, JOK-CD38-WT) (human) (UniProt P28907); assay: flow cytometry, FITC-IB6 on JOK-Empty cells (RhoH not induced), mean of 4 experiments

mean fluorescence intensity (after subtraction of isotype control) [1]: 19.7
mean fluorescence intensity (after subtraction of isotype control) [2]: 71.8
Substance: FITC-conjugated version of the monoclonal antibody IB6 directed against CD38 (Miltenyi Biotec)
